Columns and labels:
[1] = ω-transaminase enzyme activity assay, forward direction (glutarate semialdehyde to 5-aminopentanoate), cell free extract; format: biochemical; conditions: conclusion from reverse and forward direction assays
Protocol: (§1) A nucleotide sequence encoding an N-terminal His-tag was added to the genes from Chromobacterium violaceum and Rhodobacter sphaeroides encoding the ω-transaminases of SEQ ID NOs: 8 and 10 respectively (see FIG. 10) such that N-terminal HIS tagged ω-transaminases could be produced. Each of the resulting modified genes was cloned into a pET21a expression vector under control of the T7 promoter and each expression vector was transformed into a BL21[DE3] E. coli host. The resulting recombinant E. coli strains were cultivated at 37° C. in a 250 mL shake flask culture containing 50 mL LB media and antibiotic selection pressure, with shaking at 230 rpm. Each culture was induced overnight at 16° C. using 1 mM IPTG.
(§2) The pellet from each induced shake flask culture was harvested via centrifugation. Each pellet was resuspended and lysed via sonication. The cell debris was separated from the supernatant via centrifugation and the cell free extract was used immediately in enzyme activity assays.
Enzyme activity in the forward direction (i.e., glutarate semialdehyde to 5-aminopentanoate) was confirmed for the transaminase of SEQ ID NO: 10. Enzyme activity assays were performed in a buffer composed of a final concentration of 50 mM HEPES buffer (pH=7.5), 10 mM glutarate semialdehyde, 10 mM L-alanine and 100 μM pyridoxyl 5′ phosphate. Each enzyme activity assay reaction was initiated by adding a cell free extract of the ω-transaminase gene product or the empty vector control to the assay buffer containing the glutarate semialdehyde and incubated at 25° C. for 4 hours, with shaking at 250 rpm. The formation of pyruvate was quantified via RP-HPLC.

[2] = ω-transaminase enzyme activity assay, reverse direction (5-aminopentanoate to glutarate semialdehyde), cell free extract; format: biochemical; conditions: 10 mM 5-aminopentanoate, 10 mM pyruvate, pH 7.5, 25° C., 4 hours; against the empty vector control; FIG. 15
Protocol: as §1, §2
Enzyme activity assays in the reverse direction (i.e., 5-aminopentanoate to glutarate semialdehyde) were performed in a buffer composed of a final concentration of 50 mM HEPES buffer (pH=7.5), 10 mM 5-aminopentanoate, 10 mM pyruvate and 100 μM pyridoxyl 5′ phosphate. […] The formation of L-alanine from pyruvate was quantified via RP-HPLC.

B1: SEQ ID NO: 8: Chromobacterium violaceum ω-transaminase, N-terminal HIS tagged, cell free extract (protein, listed as Chromobacterium violaceum)
chain: MQKQRTTSQWRELDAAHHLHPFTDTASLNQAGARVMTRGEGVYLWDSEGNKIIDGMAGLWCVNVGYGRKDFAEAARRQMEELPFYNTFFKTTHPAVVELSSLLAEVTPAGFDRVFYTNSGSESVDTMIRMVRRYWDVQGKPEKKTLIGRWNGYHGSTIGGASLGGMKYMHEQGDLPIPGMAHIEQPWWYKHGKDMTPDEFGVVAARWLEEKILEIGADKVAAFVGEPIQGAGGVIVPPATYWPEIERICRKYDVLLVADEVICGFGRTGEWFGHQHFGFQPDLFTAAKGLSSGYLPIGAVFVGKRVAEGLIAGGDFNHGFTYSGHPVCAAVAHANVAALRDEGIVQRVKDDIGPYMQKRWRETFSRFEHVDDVRGVGMVQAFTLVKNKAKRELFPDFGEIGTLCRDIFFRNNLIMRACGDHIVSAPPLVMTRAEVDEMLAVAERCLEEFEQTLKARGLA
modifications: N-terminal His tag
notes: Chromobacterium violaceum ω-transaminase, N-terminal HIS tagged, cell free extract
Q: Which results are given for B1?
A: acceptance of glutarate semialdehyde as substrate and synthesis of 5-aminopentanoate, concluded from reversibility of the ω-transaminase activity [1]: accepted glutarate semialdehyde as substrate and synthesized 5-aminopentanoate; acceptance of 5-aminopentanoate as substrate (formation of L-alanine from pyruvate, RP-HPLC) [2]: accepted 5-aminopentanoate as substrate
